Measured values: paper PMC10416611, “Overexpression of AHL proteins enhances root hair production by altering the transcription of RHD6‐downstream genes”

Assays:
[1] = target: MBP-AHL17-His (Arabidopsis thaliana, UniProt Q9LTA2 1-276); assay: EMSA; reduced by unlabeled probe; EMSA as in Sun et al. 2016; buffer, salt, pH and temperature not given; FAM-labeled probe 1 uM (Fig. S6); settings: protein: recombinant; tags: N-terminal MBP; C-terminal 6xHis; label: FAM; blunt
[2] = target: T1, MBP-AHL28 (Arabidopsis thaliana, UniProt Q9M9R4 1-206); assay: EMSA; 1.5 ug protein, 1 uM probe; reduced by unlabeled probe; EMSA as in Sun et al. 2016; buffer, salt, pH and temperature not given; FAM-labeled probe 1 uM (Fig. S6); settings: protein: recombinant; tags: N-terminal MBP; label: FAM; blunt
T1 sequence: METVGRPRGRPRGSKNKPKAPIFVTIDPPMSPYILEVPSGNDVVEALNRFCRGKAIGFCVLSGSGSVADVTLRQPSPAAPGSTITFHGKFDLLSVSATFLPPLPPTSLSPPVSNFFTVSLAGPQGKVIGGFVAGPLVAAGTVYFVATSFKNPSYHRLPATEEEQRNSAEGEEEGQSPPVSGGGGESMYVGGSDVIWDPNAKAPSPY

Row | Binder | binding result [1] | binding result [2]
1 | COW1 promoter probe (dsDNA) DNA 1: TTTCTCTCATATTTAATTTATTTACTTAGAAA DNA 2: TTTCTAAGTAAATAAATTAAATATGAGAGAAA | binds | binds
2 | PRP3 promoter probe (dsDNA) DNA 1: GTCCAAATATTTATATTATAAGATACATTTTAATATTTAATTATGATTTAGTAGA DNA 2: TCTACTAAATCATAATTAAATATTAAAATGTATCTTATAATATAAATATTTGGAC | binds | binds
